Positions count from the first letter of the chain named.

Drawing on patent US20240287527, “VIRAL PROTEIN […] […] AND METHODS OF USE IN DIAGNOSTICS, […] PURPOSES” (AYASS BIOSCIENCE LLC, published 2024), this text covers binding result and activity for three molecules.

The target in data set [1] is SARS-CoV-2 nucleocapsid protein (SARS-CoV-2, UniProt P0DTC9 P0DTC9:1-419). The experiment in a line: SPR. As to conditions: tags: AcroBiosystems C5227 / RayBiotech 230-01104.
Data set [2] has as its target ACE2/ACEH (Homo sapiens, UniProt Q9BYF1 Q9BYF1:18-740). Description: SPR. To be noted: tags: Fc-tag, ACRO Biosystems AC2-H5257; chain copies: 2.
For data set [3], the target named is SARS-CoV-2 full-length S protein on lentiviral VLP (SARS-CoV-2, UniProt P0DTC2 P0DTC2:14-1273). Description: cell_activity. As to conditions: protein: virion, tags: GenTarget VLP001, GFP reporter VLP, chain copies: 3 (inferred).

B1: AYA2012004_L-M2 (structured_DNA)
DNA 1: TTTTTTAGGGAAGAGAAGGACAATGATTTTGGGCGGGTTGA
DNA 2: B1 DNA 1 with T1A, T2A, T3A, T4A, T5A
Consider B1, for which the binding result in data set [1] and in data set [2] was “no binding” in each case. The same molecule had an activity in data set [3] of roughly 60 % inhibition.

In the case of TAGGGAAGAGAAGGACAATGATTTTGGGCGGGTTGA (ssDNA) [AYA2012004_L-M1], the binding result in data set [1] and in data set [2] was “no binding” throughout. The molecule further yielded an activity in data set [3] of roughly 50 % inhibition.

B2: SB3L (AYA2012004_L) (ssDNA)
DNA: TAGGGAAGAGAAGGACAATGATTTTGGGCGGGTTGAGGTGGGGGAGGAGGAGGTAGTTAGAGTTGACTAGTACATGACCACTTGA
In the case of B2, the binding result in data set [1] and in data set [2] was “no binding” in each case. For the same molecule, the activity in data set [3] (label: 5'-biotin, two hairpins (predicted)) was roughly 70 % inhibition.
